From PMC2820527 come the findings set out here.

The target in the experiment is SmTK4-SH2SH2 (tandem SH2-domain of SmTK4 as a fusion protein with the Gal4-BD) (Schistosoma mansoni) (UniProt Q8WPV5). Put plainly: two-hybrid; beta-Gal liquid assay (ONPG) in AH109, relative binding strength; bait plasmid co-expresses the SmTK3 TK-domain (additional phosphorylation).

“SmTK6 prey clone (novel schistosome Src kinase SmTK6, partial, Gal4-AD fusion) (from UniProt C5J9R9 1-565) (domain or fragment)”: the fold increase of the interaction (β-Gal liquid assay) with the SmTK3 TK-domain against without it worked out at 5 fold.
